Numbering of substitutions follows the chain as printed. Names may count otherwise. Like-named read-outs stand apart in the source and are kept apart here. One block for each binder: values may come before it.
Key:
[1] = target: T1, mature myostatin (recombinant, dimeric) (mouse polyprotein used for in-house …, UniProt O08689 268-376); test: myostatin binding ELISA with purified antibody (made in CHOE1a), 10 ng/well recombinant myostatin coated, anti-human kappa HRP, A490 (Examples 4.1, 4.2)
T1 construct: also called GDF-8; recombinant myostatin
T1 sequence: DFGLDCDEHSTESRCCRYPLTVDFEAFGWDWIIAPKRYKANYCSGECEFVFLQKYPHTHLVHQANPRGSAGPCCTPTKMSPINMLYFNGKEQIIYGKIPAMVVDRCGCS
Procedure: The myostatin binding ELISA was carried out approximately according to this protocol. A 96-well ELISA plate was coated at 4° C. overnight with 10 ng/well recombinant myostatin. This plate was then washed 3-times in wash buffer (PBS, 0.1% Tween-20). The wells were blocked for 1 hour at room temperature with block solution (PBS, 0.1% Tween-20+1% bovine serum albumin [BSA]), before washing 3-times in wash buffer. Antibodies were then titrated out to a suitable concentration range (approximately 100 to 0.001 μg/ml), added to the plate and incubated for 1 hour at room temperature. The plate was then washed 3-times in wash buffer. An anti-mouse IgG HRP-conjugated antibody (P0260 by Dako, this reagent was used according to the manufacturer's instructions) was used to detect binding of mouse antibodies, such as 10B3. An anti-human kappa light chain HRP-conjugated antibody (A7164 by Sigma Aldridge, this reagent was used according to the manufacturer's instructions) was used to detect binding of humanized or chimeric antibodies, such as 10B3 chimera or H0L0. The plate was then washed 3-times in wash buffer and developed with an OPD substrate (from Sigma, used according to the manufacturer's instructions) and read at 490 nm on a plate reader.

[2] = target: T1, mature myostatin (recombinant, dimeric); test: BIAcore, medium density myostatin surface, antibody analyte, 1:1 model (poor fits)
Procedure: (§1) Purified H0L0, H1L2 and H2L2 bound recombinant myostatin by BIAcore™ Recombinant myostatin was immobilised at three different densities (low, medium and high, to give R-max values of approximately 35, 120 and 350 RU's respectively) onto a BIAcore™ chip. Antibodies were passed over at 256, 64, 16, 4 and 1 nM. 0 nM antibody was used for double referencing and data was fitted to the 1:1 model.

[3] = target: T1, mature myostatin (recombinant, dimeric); test: BIAcore, low density myostatin surface, methods as in 4.3
[4] = target: T1, mature myostatin (recombinant, dimeric); test: cell-based or functional assay
[5] = target: T1, mature myostatin (recombinant, dimeric); test: cell-based or functional assay; remark: listed apart in the source
[6] = target: T1, mature myostatin (recombinant, dimeric); test: BIAcore T100, antibody captured on protein A (C1 chip), myostatin analyte, all curves 1:1 model
Procedure: (§2) The affinity of 10B3 mouse parental and 10B3C for recombinant myostatin was assessed by BIAcore™ (surface plasmon resonance) analysis. Analysis was carried out by the use of a capture surface: anti-mouse IgG was coupled to a C1 chip by primary amine coupling for 10B3 mouse parental; and a protein A surface was created on a C1 chip by primary amine coupling for 10B3 chimera.
(§3) After capture, recombinant myostatin was passed over the surface at 64 nM, 16 nM, 4 nM, 1 nM, 0.25 nM and 0.0625 nM, with a buffer injection (i.e. 0 nM) used for double referencing. There was a regeneration step between each analyte injection, after which the new antibody capture event occurred before the next injection of myostatin. The data was analysed using both the 1:1 model and the Bivalent model inherent to the T100 machines analysis software (see Table 6). Both capture surfaces could be regenerated using 100 mM phosphoric acid, the work was carried out using HBS-EP as the running buffer and using 25° C. as the analysis temperature.

[7] = target: T1, mature myostatin (recombinant, dimeric); test: BIAcore, high density myostatin surface, antibody analyte, 1:1 model (poor fits)
Procedure: as §1

[8] = target: T1, mature myostatin (recombinant, dimeric); test: cell-based or functional assay; remark: listed apart in the source
[9] = target: T1, mature myostatin (recombinant, dimeric); test: cell-based or functional assay; remark: listed apart in the source
[10] = target: T1, mature myostatin (recombinant, dimeric); test: BIAcore T100, antibody captured on protein A (C1 chip), myostatin analyte, all curves Bivalent model
Procedure: as §2, §3

[11] = target: T1, mature myostatin (recombinant, dimeric); test: BIAcore, low density myostatin surface, antibody analyte, 1:1 model
Procedure: as §1

[12] = target: T1, mature myostatin (recombinant, dimeric); test: cell-based or functional assay; remark: listed apart in the source
[13] = target: T1, mature myostatin (recombinant, dimeric); test: ELISA, plate-coated myostatin (R&D Systems), mean EC50
Procedure: 10B3 and 10B3 chimera (10B3C) bound myostatin (R&D Systems, 788-G8-010/CF) in a sandwich ELISA. Plates were coated with myostatin at 10 ng/well and blocked with Block solution (PBS, 0.1% TWEEN and 1% BSA). Following washing (PBS, 0.1% TWEEN), antibody was incubated at 37° C. for 2 hours over a dilution series and plates washed again prior to incubation at 37° C. for 1 hour with anti-mouse HRP or anti-human HRP (Dako, P0161 & Sigma, A-8400, respectively). Plates were again washed and OPD substrate (Sigma, P9187) added until colourometric reaction occurred and the reaction stopped by the addition of H₂SO₄.

[14] = target: T1, mature myostatin (recombinant, dimeric); test: ELISA: inhibition of 2 nM biotinylated myostatin binding to plate-coated ActRIIb, mean IC50
Procedure: Recombinant soluble ActRIIb (R&D Systems 339-RBB) was coated in wells of an ELISA plate at 1 μg/ml in carbonate buffer overnight at 4° C. Plates were blocked (see Block solution above at 2.3) and washed following standard ELISA protocols. In parallel, 2 nM biotinylated myostatin (in-house, as described in 1.1, biotinylated material) was pre-incubated with an antibody dilution series consisting of 10B3, 10B3C, and a negative control (IgG1 isotype control) for 2 hours at 37° C. The biotinylated myostatin:antibody reactions were then added to the ActRIIb coated plate for 1 hour at 37° C. Standard wash procedures were followed prior to addition of 1:1000 diluted streptavidin-HRP conjugate (Dako P0397) and a further 37° C. incubation for 1 hour. Plates were again washed and assayed at absorbance 490 nm following OPD substrate (Sigma) and acid stop solution treatment Inhibition curves and IC50 values for the inhibition of myostatin activity are shown in FIG. 5 and Table 8 respectively.

[15] = target: T1, mature myostatin (recombinant, dimeric); test: cell-based or functional assay; remark: listed apart in the source
[16] = target: T1, mature myostatin (recombinant, dimeric); test: FORTEbio bio-layer interferometry, myostatin amine-coupled to sensor, 20 nM antibody, 1:1 fit
Procedure: The affinity of 10B3 mouse parental and H2L2-C91S developability variant for recombinant myostatin was also assessed by FORTEbio™ (bio-layer inferometry) analysis. FORTEbio™ analyses were carried out by antigen capture. Myostatin (in-house, see above at 1.1) was coupled onto amine reactive biosensors by primary amine coupling in accordance with the manufacturer's instructions. Antibodies were then captured onto this surface at 20 nM concentrations. The data was analysed using the evaluation software inherent in the machine and the data analysed using 1:1 fit (see Table 16). Due to the limited number of myostatin molecules bound to the sensor surface and the low antibody concentration, avidity effects are reduced, enabling a more accurate measure of affinity compared to the Biacore analyses. […] However, due to the nature of the binding of the antibodies to myostatin, these values are mainly used for ranking purposes, and the affinity may not be representative of the affinity in vivo.

[17] = target: T1, mature myostatin (recombinant, dimeric); test: myostatin binding ELISA after 48 h at 37 C in 1% ammonium bicarbonate pH 9.0 (Examples 5.2, 4.2), A490
[18] = target: T1, mature myostatin (recombinant, dimeric); test: myostatin binding ELISA after 48 h at 37 C in PBS (Examples 5.2, 4.2), A490
[19] = target: T1, mature myostatin (recombinant, dimeric); test: BIAcore, low density myostatin surface
[20] = target: T1, mature myostatin (recombinant, dimeric); test: ProteOn XPR36, antibody captured from supernatant, myostatin analyte
Procedure: The initial kinetic analyses for the CDRH3 screen were carried out on the ProteOn XPR36 (Biorad Laboratories). For residues R95 to P100_B, analysis was carried out using a Protein A/G capture surface (Pierce 21186) was used and for residues A100_C to V102, an anti-human IgG surface was used (Biacore/GE Healthcare BR-1008-39). Both capture surfaces were prepared similarly using primary amine coupling to immobilise the capture molecule on a GLM chip (Biorad Laboratories 176-5012). CDRH3 variants were captured directly on either the Protein A/G or anti-human IgG surface (depending on the residue mutated) from tissue culture supernatants from transient transfections expressing the particular variant of interest. After capture, in-house recombinant human myostatin (see 1.1 above) was used as an analyte at 256 nM, 32 nM, 4 nM, 0.5 nM and 0.0625 nM, with a buffer injection alone (i.e. 0 nM) used to double reference the binding curves. Following the myostatin binding event, the capture surfaces were regenerated: for the Protein A/G capture surface, 100 mM phosphoric acid was used to regenerate the capture surface; and for the anti-human IgG surface, 3M MgCl₂ was used to regenerate the capture surface; the regeneration removed the previously captured antibody ready for another cycle of capture and binding analysis. […]

B2: H2L2 C91S (H2L2-C91S) (antibody, human IgG1, kappa, V domains shown)
VH: QVQLVQSGAEVKKPGASVKVSCKASGYSFTGYFMHWVRQAPGQGLEWMGNIYPYNGVSNYNQRFKARVTMTTDTSTSTAYMELRSLRSDDTAVYYCARRYYYGTGPADWYFDVWGQGTLVTVSS
VL: DIQMTQSPSSLSASVGDRVTITCKASQDINSYLSWFQQKPGKAPKSLIYRANRLVDGVPSKFSGSGSGTDYTLTISSLQPEDFATYYCLQSDEFPLTFGQGTKLEIKR
notes: Humanised, human IgG1/kappa; also called base molecule; base H2L2-C91S
- Kd [3]: 16.6 nM
- Mean IC50, A204 in vitro activity assay [15]: 4.08 nM
- Mean IC50, A204 in vitro activity assay (5 nM myostatin) [5]: 5.14 nM
- Kd [16]: 0.073 nM
- koff [16]: 2.99e-05 s⁻¹
- kon [16]: 410000 M⁻¹ s⁻¹
- Mean IC50, A204 in vitro activity assay [9]: 9.26 nM
- EC50 (read off the curve) [17]: ~1 nM

B3: H2L2 N54Q (H2L2-N54Q) (antibody, human IgG1, kappa, V domains shown)
VH: B2 VH with N55Q
VL: B2 VL with S91C
- Kd [3]: 28 nM
- Mean IC50, A204 in vitro activity assay [9]: 12 nM
- EC50 (read off the curve) [18]: ~1 nM
- fold loss in affinity against H2L2 [19]: ≥ 2 fold

More lines, now with the values ahead:

- EC50 (read off the curve) [1]: ~0.1 µg/mL
- Kd [2]: 1.35 nM
- koff [2]: 0.000559 s⁻¹
- kon [2]: 413000 M⁻¹ s⁻¹
- Kd [3]: 4.44 nM
- Mean IC50, A204 in vitro activity assay [4]: 5.1 nM
- Mean IC50, A204 in vitro activity assay (5 nM myostatin) [5]: 3.53 nM
- Kd [6]: 0.088 nM
- Kd [7]: 0.882 nM
- koff [7]: 0.000218 s⁻¹
- kon [7]: 248000 M⁻¹ s⁻¹
- Mean IC50, A204 in vitro activity assay [8]: 3.57 nM
- Mean IC50, A204 in vitro activity assay [9]: 8.45 nM
- Kd [10]: 3.6 nM
- Kd [11]: 1.61 nM
- koff [11]: 0.000967 s⁻¹
- kon [11]: 599000 M⁻¹ s⁻¹
- Mean IC50, myostatin responsive reporter gene assay (A204 cells, luciferase) [12]: 6.2 nM
- EC50 [13]: 0.049 µg/mL
- IC50 [14]: 0.138 µg/mL
B1: 10B3 chimera (antibody, human IgG1, kappa, V domains shown)
VH: EVQLQQSGPELVKPGASVKISCKASGYSFTGYFMHWVKQSHGNILDWIGNIYPYNGVSNYNQRFKAKATLTVDKSSSTAYMELRSLTSEDSAVYYCARRYYYGTGPADWYFDVWGTGTLVTVSS
VL: DIKMTQSPSSMYASLRERVTITCKASQDINSYLSWFQQKPGKSPKTLIYRANRLVDGVPSRFSGSGSGQDYSLTISSLEYEDMGIYYCLQCDEFPLTFGAGTKLELKR
notes: Mouse variable regions on human IgG1/kappa wild type constant regions; also called HCLC; HcLc

- binding result [20]: binds
B4: CDRH3 variant F100G_S of H2L2-C91S (antibody, human IgG1, kappa, V domains shown)
VH: B2 VH with F111S
VL: B2 VL
notes: tested only in the supernatant screen
